Experimental data as given in patent US20220249563A1 (LEGEND BIOTECH IRELAND, published 2022).
Residue numbers refer to the chain shown, from its start.

B1: AS64395 (VHH)
VHH: QVRLVESGGGSVQAGGSLRLSCAASGSTYSTNFMGWFRQAPGKEREGVATLVTWAERTAYADSVKGRFTISQDRAKNTVYLQMNGLKPEDTAMYYCAAAASTAVRLLDPGDFAYWGQGTQVTVSS
notes: camel sdAb; crude E. coli supernatant
B2: AS68280 (VHH)
VHH: QVQLVESGGGSVHPGGSLRLSCAASGSTYSSNYLGWFRQAPGKGRDWVAAISTGDGATAYADSVKGRFTISQDNAKNTVYLQMNSLKLEDSAMYYCAAARGRFIDWTKATQYDYWGQGTQVTVSS
notes: as for B1
B3: AS75383 (VHH)
VHH: EVQLAESGGGSVQAGGSLRLSCVASGYTFSSYCLGWFRQAPGKQRQGVATFNNRGVANYHDSVKGRFTASVDNAKNTLLLQMNSLEPDDTAMYYCAADRRYGRQWYQPCEWNTWGQGTQVTVSS
notes: as for B1
B4: AS68355 (VHH)
VHH: QMQLVESGGDSVQAGGSLRLSCAASGYTYSGVCMGWFRQAPGKEREGVAAIDSDGSTSYADSVKGRFTISKDNAKNTLYLQMNSLKPEDTAMYYCAAAIVGGFNAYCSGGYVLDFGAWGQGTQVTVSS
notes: as for B1
B5: AS75376 (VHH)
VHH: QVQLKESGGGSVQAGGSLRLSCAASGYTYSSHSMGWFRQAPGKEREGVAVIYTGDGSTYYADSVKGRFTISQDNAKNTVYLQMNSLKPEDTAMYYCAADPNPDYMLPFRPSRRSWWGQGTQVTVSS
notes: as for B1
B6: AS64114 (VHH)
VHH: QVQLQESGGGSVQAGGSLTLSCEASGNTYSTNYMGWFRQAPGKEREEVAVIYTRGGHTYYVDSVRGRFTISQDNAKNTVYLQMNSLKPEDTAMYYCAAASRHRLRLNNPRDYDYWGQGTQVTVSS
notes: as for B1
B7: AS69527 (VHH)
VHH: EVQLAESGGGSVQAGGSLRLSCVASRYTFSSTCMAWFRQAPGKEREEVAAIYTDDGSTWYADSVKGRFTISRDNAKNTVYLQMNSLKPEDTAMYYCAARRWACPRVGSWHEFAYWGQGTQVTVSS
notes: as for B1
B8: AS64300 (VHH)
VHH: QVHLVESGGGSVQTGGSLRLSCAVSGDIYNLMSMAWFRRAPGKEREGVAYINTIIGNTYYTDSVKGRFTISRDNSKNTLYLQMNNLKPEDTAMYYCAAFNYGGAWYEERSYKYWGQGTQVTVSS
notes: as for B1
B9: AS63932 (VHH)
VHH: QVQLEESGGGSVQAGGSLRLSCVASGYTYGSTFMGWFRQNPGKEREGVAVIYTGGGSTWYASSVKGRFTISQDNAKNTVYLQMNSLKPEDTAMYYCAARYGSGNVNYWGQGTQVTVSS
notes: as for B1
B10: AS68320 (VHH)
VHH: QVHLVESGGDSVQAGGSLRLSCAASGYTYNTNYMGWFRQAPGKEREGVAAIYRHSGNTAYADSVKGRFTISQDYAKNTVYLQMNSLKPEDTAMYYCAAGRAGPWALMRPTEFGYWGQGTQVTVSS
notes: as for B1
B11: AS64443 (VHH)
VHH: QVHLVESGGGSVQAGGSLRLSCAASGYTDSSVYIGWFRQAPGKEREEVAIIYTGGESTHYRSSVKGRFTVSQDNAKNTLYLQMNSLKPEDTAMYYCAARFPAVTYWGQGTQVTVSS
notes: as for B1
B12: AS64123 (VHH)
VHH: QVQLAESGGGSVQAGGSLRLSCAASGYTYTSNWLGWFRQAPGKEREEVAIIYTGSGSTHYRSSVKGRFTISQDNAKNTVYLQMNSLKPEDTAMYYCAARFSEYNYWGQGTQVTVSS
notes: as for B1
B13: AS63999 (VHH)
VHH: B12 VHH with Q1E, A5V, T30S, L34M, S55G, G56I, F100Y, S101T, E102D
notes: as for B1
B14: AS64130 (VHH)
VHH: EVQLAESGGGSVQAGGSLRLSCAASGYTYRSNFMGWFRQAPAKEREGVATIDSRGTITYYADSVKGRFTISQDNEKNTVYLQMNSLKPEDTAMYYCAAGGPRTNDDRWYPLRPPGYNYWGQGTQVTVSS
notes: as for B1
B15: AS75751 (VHH)
VHH: QVRLVESGGGSVQAGGSLRLSCVASGYFYNTYYFMGWFRQAPGKEREGVAAIDTDGRTSYADSVKGRFTISKDNAKNTLYLQMNSLKPEDTAMYYCAAGFGYMNVIQALNGMRQNPDYWGQGTQVTVSS
notes: as for B1
B16: AS64160 (VHH)
VHH: EVQLVESGGGSVQAGGSLRLSCAASVYTSSSYCMGWFRQAPGKEREGVAAMCFGGLVTHYADSVKGRFTISQDNAKNTVYLQMNSLKPEDTAMYYCAADFGRDKNYLRPLLPHAYNYWGQGTQVTVSS
notes: as for B1
B17: AS64597 (VHH)
VHH: QVHLVESGGGSVQAGGSLRLSCAASGYTYRVNFMGWFRQTPGKEREGVATIDSGVGTTYYADSVKGRFTISHNNAKNTIYLQMNSLKPEDTAMYYCAAGGPPTDGDRWYPLRPPGYNYWGQGTQVTVSS
notes: as for B1
B18: AS64142 (VHH)
VHH: QVHLMESGGGLVQTGGSLRLSCTASGFTFDRNAMRWYRQAPGKEREGVSCIDWTGANIAYADSVKGRFTISRDNAKNTLYLQMNSLKPEDTGMYYCAADTTSGYCSGFWSTSRYSWGQGTQVTVSS
notes: as for B1
B19: AS64057 (VHH)
VHH: B18 VHH with H3Q, M5E, D52S, Y104S, S115Y
notes: as for B1
B20: AS75387 (VHH)
VHH: QVHLVESGGGSVQAGGSLRLSCAASGYPYSSPCMAWFRQAPGKEREGVLVAYTGGDIQYLTDSVKGRFTISRDNAKNTVYLQMNSLKPEDTAMYYCAADLRLPRAGGCAYSYWGQGTQVTVSS
notes: as for B1
B21: AS64228 (VHH)
VHH: QVQLKESGGGSIQAGGSLRLSCAASGVSYNRCSMGWYRQAPGKGRELVSRIQPGGNTYYADSVKGRFTVSQDNAKNTVSLQMNSLKPEDTAMYYCNALCWRENVNYWGQGTQVTVSS
notes: as for B1
B22: AS68351 (VHH)
VHH: QVQLEESGGGLVQPGGSLRLSCAASGDTFRAYYMNWVRQAPGKGFEWVSGISASGGRTSYADSVKGRFTISRDNAKNTLYLQLNSLSTEDTGMYYCVKGAVRLSTSSVRDSSWGQGTQVTVSS
notes: as for B1
B23: AS69500 (VHH)
VHH: QVRLVESGGGSVQAGGSLRLSCAADRYTYSSACMGWFRQAPGKEREGVASIFTGTGGSTYYADSVKGRFTISQDNAKNTVYLQMNSLKPEDTAIYYCAARAFQVGYCYLRTDVYNYWGQGTQVTVSS
notes: as for B1
B24: AS64137 (VHH)
VHH: QVRLVESGGGSVQAGGSLRLSCAASGSTYSTNFMGWFRQAPGKEREGVATLVTWVERTAYADSVKGRFTISQDRAKNTVYLQMNSLKPEDTAMYYCAAAAASTDVRLLDPGDFAYWGQGTQVTVSS
notes: as for B1
B25: AS75378 (VHH)
VHH: QVQLEESGGGSVQAGGSLRLSCVVSGNTRSTTYMGWFRQAPGKEREGVAIVYTGGRDTYYAASVKGRFTISQDNAKTTIYLQMNSLEPEDTAMYYCAARSYEYTYWGRGTQVTVSS
notes: as for B1
B26: AS64634 (VHH)
VHH: QVRLVESGGGSVQAGGSLRLSCAASGYSFRGDFMCMGWFRQTPGKGREGVAVFYPGGGSTNYADSAKGRFTISQDNAKNTMYLQMNTLKPEDTAMYYCAARRWVSGTCYWDSDFHYWGQGTQVTVSS
notes: as for B1
B27: AS64072 (VHH)
VHH: QVQLVESGGGSVQAGGFLRLSCALSGYSYYINLMAWFRQAPGKEREAVAAHGPVSGTAYYTDSVKGRFTISRDPGKNTMYLQMFSLQPEDTALYYCAAETTMGWAHERGYRYWGQGTQVTVSS
notes: as for B1
B28: AS64097 (VHH)
VHH: QVHLMESGGGSVQAGGSLRLSCEASGYTYSRNCMGWFRQAPGKEREGVAAINTGGGSTYYADSLEGRFTISQDNAKNTMYLQMNSLKPEDTAMYYCAAGPDLGGSWCRPVERAFTYWGQGTQVTVSS
notes: as for B1
B29: AS68270 (VHH)
VHH: QVQLAESGGGSVQAGGSLRLSCVASGYPSSTYYMLSMAWFRQAPGKEREGVAAITSGTGSTSYADSVKDRFTISKDYANNTLYLHINNLKPEDTAMYYCAAASGWIVPSRSLTANLYRYWGQGTQVTVSS
notes: as for B1
B30: AS76422 (VHH)
VHH: QVKLVESGGGSVQAGGSLRLSCAASGYTFAGNCLGWFRQAPGKGREGVVTYNNFGVANYADSVKGRFTVSQDNAKNTLLLQMNSLEPEDTAMYYCAADRRDGRRWSQPCEWNTWGQGTQVTVSS
notes: as for B1

molecular target: T1, extracellular domain of human DLL3 protein (aa27-466) having an N-terminal FLAG tag (AdipoGen, AG-40B-0151) (human, UniProt Q9NYJ7 27-466); assay: ELISA (protein), FACS (cells)
T1 construct: range 27-466; also called DLL3 ECD protein
T1 sequence (looked up): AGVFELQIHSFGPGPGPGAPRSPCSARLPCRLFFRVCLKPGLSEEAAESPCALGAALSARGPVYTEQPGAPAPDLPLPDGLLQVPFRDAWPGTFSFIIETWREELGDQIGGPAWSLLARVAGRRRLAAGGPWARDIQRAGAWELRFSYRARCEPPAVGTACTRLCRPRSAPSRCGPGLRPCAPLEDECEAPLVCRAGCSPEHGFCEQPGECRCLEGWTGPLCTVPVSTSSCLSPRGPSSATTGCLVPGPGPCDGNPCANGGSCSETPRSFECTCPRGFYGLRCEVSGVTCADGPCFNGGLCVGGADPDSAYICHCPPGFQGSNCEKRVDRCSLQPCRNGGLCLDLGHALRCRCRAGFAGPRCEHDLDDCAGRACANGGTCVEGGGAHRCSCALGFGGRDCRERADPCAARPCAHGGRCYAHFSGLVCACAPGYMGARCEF

Binding result, binds:
B1
B2
B3
B4
B5
B6
B7
B8
B9
B10
B11
B12
B13
B14
B15
B16
B17
B18
B19
B20
B21
B22
B23
B24
B25
B26
B27
B28
B29
B30
